T1: Orc2 (subunit of the purified ORC) (S. cerevisiae, UniProt P32833 1-620)
T1 sequence (looked up): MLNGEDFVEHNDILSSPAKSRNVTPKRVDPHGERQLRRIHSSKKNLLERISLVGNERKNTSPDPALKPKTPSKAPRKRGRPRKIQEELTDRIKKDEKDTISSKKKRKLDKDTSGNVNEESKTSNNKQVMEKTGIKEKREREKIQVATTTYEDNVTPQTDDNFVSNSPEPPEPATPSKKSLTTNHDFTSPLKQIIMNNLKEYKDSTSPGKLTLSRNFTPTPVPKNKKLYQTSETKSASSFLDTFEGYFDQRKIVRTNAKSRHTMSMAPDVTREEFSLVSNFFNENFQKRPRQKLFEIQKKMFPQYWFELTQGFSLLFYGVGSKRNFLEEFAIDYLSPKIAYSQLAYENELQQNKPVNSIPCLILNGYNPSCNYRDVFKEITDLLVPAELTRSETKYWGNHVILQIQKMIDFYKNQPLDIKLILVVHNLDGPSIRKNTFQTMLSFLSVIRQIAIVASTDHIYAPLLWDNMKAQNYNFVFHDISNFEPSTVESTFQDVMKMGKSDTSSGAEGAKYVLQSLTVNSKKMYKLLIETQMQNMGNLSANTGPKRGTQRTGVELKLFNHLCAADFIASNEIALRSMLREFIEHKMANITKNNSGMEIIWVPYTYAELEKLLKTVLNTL

T2: Orc1 (subunit of the purified ORC) (S. cerevisiae, UniProt P54784 1-914)
T2 sequence (looked up): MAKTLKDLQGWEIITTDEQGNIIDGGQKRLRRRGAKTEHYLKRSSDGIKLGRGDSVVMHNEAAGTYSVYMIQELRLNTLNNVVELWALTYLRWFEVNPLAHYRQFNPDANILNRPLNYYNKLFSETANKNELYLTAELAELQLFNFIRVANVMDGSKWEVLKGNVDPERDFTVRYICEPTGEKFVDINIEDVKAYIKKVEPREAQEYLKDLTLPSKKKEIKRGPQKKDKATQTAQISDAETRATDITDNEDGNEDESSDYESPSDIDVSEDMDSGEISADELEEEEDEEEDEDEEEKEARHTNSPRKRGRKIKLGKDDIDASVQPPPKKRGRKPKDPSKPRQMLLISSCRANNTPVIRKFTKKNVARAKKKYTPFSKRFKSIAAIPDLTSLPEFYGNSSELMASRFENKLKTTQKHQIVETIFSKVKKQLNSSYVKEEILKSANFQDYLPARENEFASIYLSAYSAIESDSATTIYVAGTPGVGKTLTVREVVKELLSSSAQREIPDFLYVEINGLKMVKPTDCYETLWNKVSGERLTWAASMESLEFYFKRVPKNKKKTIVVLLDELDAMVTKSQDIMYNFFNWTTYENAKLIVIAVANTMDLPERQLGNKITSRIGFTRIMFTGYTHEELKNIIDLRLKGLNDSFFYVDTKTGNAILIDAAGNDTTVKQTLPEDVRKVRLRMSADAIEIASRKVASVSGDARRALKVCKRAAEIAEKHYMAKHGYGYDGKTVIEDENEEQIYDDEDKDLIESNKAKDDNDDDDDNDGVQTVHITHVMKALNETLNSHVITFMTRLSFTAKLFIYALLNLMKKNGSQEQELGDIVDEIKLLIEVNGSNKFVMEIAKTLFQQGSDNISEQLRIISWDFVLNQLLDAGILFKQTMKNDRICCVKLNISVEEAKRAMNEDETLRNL

B1: Orc6 (subunit of the purified ORC) (natural protein, S. cerevisiae, UniProt P38826 1-435, looked up)
chain: MSMQQVQHCVAEVLRLDPQEKPDWSSGYLKKLTNATSILYNTSLNKVMLKQDEEVARCHICAYIASQKMNEKHMPDLCYYIDSIPLEPKKAKHLMNLFRQSLSNSSPMKQFAWTPSPKKNKRSPVKNGGRFTSSDPKELRNQLFGTPTKVRKSQNNDSFVIPELPPMQTNESPSITRRKLAFEEDEDEDEEEPGNDGLSLKSHSNKSITGTRNVDSDEYENHESDPTSEEEPLGVQESRSGRTKQNKAVGKPQSELKTAKALRKRGRIPNSLLVKKYCKMTTEEIIRLCNDFELPREVAYKIVDEYNINASRLVCPWQLVCGLVLNCTFIVFNERRRKDPRIDHFIVSKMCSLMLTSKVDDVIECVKLVKELIIGEKWFRDLQIRYDDFDGIRYDEIIFRKLGSMLQTTNILVTDDQYNIWKKRIEMDLALTEPL
B2: Orc5 (subunit of the purified ORC) (natural protein, S. cerevisiae, UniProt P50874 1-479, looked up)
chain: MNVTTPEVAFREYQTNCLASYISADPDITPSNLILQGYSGTGKTYTLKKYFNANPNLHAVWLEPVELVSWKPLLQAIARTVQYKLKTLYPNIPTTDYDPLQVEEPFLLVKTLHNIFVQYESLQEKTCLFLILDGFDSLQDLDAALFNKYIKLNELLPKDSKINIKFIYTMLETSFLQRYSTHCIPTVMFPRYNVDEVSTILVMSRCGELMEDSCLRKRIIEEQITDCTDDQFQNVAANFIHLIVQAFHSYTGNDIFALNDLIDFKWPKYVSRITKENIFEPLALYKSAIKLFLSTDDNLSENGQGESAITTNRDDLENSQTYDLSIISKYLLIASYICSYLEPRYDASIFSRKTRIIQGRAAYGRRKKKEVNPRYLQPSLFAIERLLAIFQAIFPIQGKAESGSLSALREESLMKANIEVFQNLSELHTLKLIATTMNKNIDYLSPKVRWKVNVPWEIIKEISESVHFNISDYFSDIHE
B3: S. cerevisiae Cdc6 (natural protein, UniProt P09119 1-513, looked up)
chain: MSAIPITPTKRIRRNLFDDAPATPPRPLKRKKLQFTDVTPESSPEKLQFGSQSIFLRTKALLQKSSELVNLNSSDGALPARTAEYEQVMNFLAKAISEHRSDSLYITGPPGTGKTAQLDMIIRQKFQSLPLSLSTPRSKDVLRHTNPNLQNLSWFELPDGRLESVAVTSINCISLGEPSSIFQKIFDSFQDLNGPTLQIKNMQHLQKFLEPYHKKTTFVVVLDEMDRLLHANTSETQSVRTILELFLLAKLPTVSFVLIGMANSLDMKDRFLSRLNLDRGLLPQTIVFQPYTAEQMYEIVIQKMSSLPTIIFQPMAIKFAAKKCAGNTGDLRKLFDVLRGSIEIYELEKRFLLSPTRGSLNSAQVPLTPTTSPVKKSYPEPQGKIGLNYIAKVFSKFVNNNSTRTRIAKLNIQQKLILCTIIQSLKLNSDATIDESFDHYIKAITKTDTLAPLQRNEFLEICTILETCGLVSIKKTKCKGKTKRFVDKIDVDLDMREFYDEMTKISILKPFLH
B4: Orc4 (subunit of the purified ORC) (natural protein, S. cerevisiae, UniProt P54791 1-529, looked up)
chain: MTISEARLSPQVNLLPIKRHSNEEVEETAAILKKRTIDNEKCKDSDPGFGSLQRRLLQQLYGTLPTDEKIIFTYLQDCQQEIDRIIKQSIIQKESHSVILVGPRQSYKTYLLDYELSLLQQSYKEQFITIRLNGFIHSEQTAINGIATQLEQQLQKIHGSEEKIDDTSLETISSGSLTEVFEKILLLLDSTTKTRNEDSGEVDRESITKITVVFIFDEIDTFAGPVRQTLLYNLFDMVEHSRVPVCIFGCTTKLNILEYLEKRVKSRFSQRVIYMPQIQNLDDMVDAVRNLLTVRSEISPWVSQWNETLEKELSDPRSNLNRHIRMNFETFRSLPTLKNSIIPLVATSKNFGSLCTAIKSCSFLDIYNKNQLSNNLTGRLQSLSDLELAILISAARVALRAKDGSFNFNLAYAEYEKMIKAINSRIPTVAPTTNVGTGQSTFSIDNTIKLWLKKDVKNVWENLVQLDFFTEKSAVGLRDNATAAFYASNYQFQGTMIPFDLRSYQMQIILQELRRIIPKSNMYYSWTQL
B5: Orc3 (subunit of the purified ORC) (natural protein, S. cerevisiae, UniProt P54790 1-616, looked up)
chain: MSDLNQSKKMNVSEFADAQRSHYTVYPSLPQSNKNDKHIPFVKLLSGKESEVNVEKRWELYHQLHSHFHDQVDHIIDNIEADLKAEISDLLYSETTQKRRCFNTIFLLGSDSTTKIELKDESSRYNVLIELTPKESPNVRMMLRRSMYKLYSAADAEEHPTIKYEDINDEDGDFTEQNNDVSYDLSLVENFKRLFGKDLAMVFNFKDVDSINFNTLDNFIILLKSAFKYDHVKISLIFNINTNLSNIEKNLRQSTIRLLKRNYHKLDVSSNKGFKYGNQIFQSFLDTVDGKLNLSDRFVEFILSKMANNTNHNLQLLTKMLDYSLMSYFFQNAFSVFIDPVNVDFLNDDYLKILSRCPTFMFFVEGLIKQHAPADEILSLLTNKNRGLEEFFVEFLVRENPINGHAKFVARFLEEELNITNFNLIELYHNLLIGKLDSYLDRWSACKEYKDRLHFEPIDTIFQELFTLDNRSGLLTQSIFPSYKSNIEDNLLSWEQVLPSLDKENYDTLSGDLDKIMAPVLGQLFKLYREANMTINIYDFYIAFRETLPKEEILNFIRKDPSNTKLLELAETPDAFDKVALILFMQAIFAFENMGLIKFQSTKSYDLVEKCVWRGI

Columns and labels:
Assay in all cases: cryo-EM structure
[1] = biological target: T1, Orc2 (subunit of the purified ORC)
[2] = biological target: B4
[3] = biological target: T2, Orc1 (subunit of the purified ORC)

binding result [1]	binding result [2]	binding result [3]	Binder
binds	–	–	B1
binds	binds	–	B2
–	–	binds	B3
–	–	binds	B4
binds	–	–	B5
